# According to patent US10435681B2, “Compounds and methods for stabilizing thrombin activity” (Omrix Biopharmaceuticals Ltd., priority 2013, dated 2019):
# Entries after “also recorded” stand apart in the source; their conditions may differ. Structures can show the parent of a compound that is named as a salt. Bridges are numbered along the chain shown (N, C = ends). Where no end group is shown, it is not given here.
# What was measured:
# thrombin [1] = target: T1, thrombin (Homo sapiens, UniProt P00734); experiment: Thrombin inhibition testing: clotting activity of 10 IU/ml thrombin towards fibrinogen in the presence of the additive; type: biochemical; conditions: for inhibition of thrombin activity: 0.5 mM additive; for inhibition of thrombin activity / reduction/inhibition of thrombin activity: 10 IU/ml thrombin
# T1 construct: yields the active alpha thrombin molecule which is a 295 amino acid polypeptide (human) composed of a heavy and light chain
# Procedure: (§1) Thrombin activity was assessed by clotting time measurements using STart4 Coagulation Instrument (DIAGNOSTICA STAGO™, Asnieres sur Seine, France). The assay is a modification of the European Pharmacopoeia Assay procedure, 1997, 0903, p. 858. Briefly, a calibration curve was prepared by mixing thrombin standard with a fibrinogen solution of 0.1% fibrinogen content (Enzyme Research Laboratories, Ind., USA). Thrombin concentration in the different tested samples was then calculated from the calibration curve by their clotting time (the concentration was extrapolated from the calibration curve).
# For inhibition testing, the clotting activity of 10 IU/ml thrombin was measured in the presence or absence of peptides.
# The assay was carried out as described in Example 1.
# thrombin [2] = target: T1, thrombin; experiment: Thrombin stability testing: remaining clotting activity of 1000 IU/ml liquid thrombin after storage at 37° C.; type: biochemical; conditions: for maintaining thrombin activity compared with 0.5 mM gamma loop peptide (in words): 3% (w/v) arginine; for stabilization of thrombin activity (in words): 0.5 mM peptide, 1000 IU/ml thrombin, 37° C., 0, 3 and 7 days
# Procedure: Aqueous liquid thrombin, in its purified and concentrated form 1000 international units IU/ml may undergo autolysis at room temperature causing a significant loss of activity e.g. towards a heterologous substrate. E.g. thrombin activity towards a heterologous substrate is reduced when a liquid thrombin formulation is incubated at room temperature for prolonged periods of time (e.g. 72 to 144 hours), inter alia, due to autolytic degradation. The decrease of thrombin activity towards a heterologous substrate in aqueous liquid solution can be assessed by measuring thrombin activity after prolonged periods of time and under permissive temperature (e.g. 37° C.). In the following experiments, the effect of a peptide on the stability of thrombin was studied under different conditions.
# Aqueous liquid purified and concentrated thrombin (1000 IU/ml; equivalent to about 10 μM) was aliquoted and placed in a 37° C. incubator for 3 days (72 hours), 7 days (168 hours) and 14 days (336 hours). Prior to incubation, thrombin samples were spiked with indicated amounts of different tested peptides or with a control thrombin inhibitor: benzamidine or arginine *HCl (“arginine”). Specific peptides, their concentrations, and thrombin inhibitors used are indicated in each Example. Following the incubation period, the samples were frozen at −80° C. until testing the thrombin activity. Just before thrombin activity assay testing, all the samples were thawed and 100-fold diluted into a dilution buffer (0.4% tri-sodium citrate di-hydrate, 0.9% sodium chloride and 1% BSA, pH=7.5) to bring the thrombin concentration in the sample to that within the specifications of the assay (4-10 IU/ml) and to dilute the tested peptides in the sample to a negligible concentration.
# as §1
# For stability testing of 1000IU/ml thrombin following storage with or without peptides, testing was carried out as described above. Dilutions (1:100) were carried out before measuring the activity.
# All of these peptides (“mutant gamma loop peptides” identified in Example 3, random peptides, thrombin derived peptides, and “gamma loop binding peptides” mentioned above) were tested for their ability to stabilize thrombin activity at a concentration of 0.5 mM as described in Example 2.
# gamma loop of thrombin = target: T2, gamma loop of thrombin (Homo sapiens, UniProt P00734); experiment: Peptide microarray binding screen with fluorescent gamma loop peptide; conditions: scale 0-65535
# T2 construct: Fluorescein-labeled cyclic gamma-loop derived peptide; made in house; host or cells: chemical synthesis
# Procedure: Based on the results disclosed in Example 2, the gamma loop peptide was used as a bait to find additional peptides which may positively affect the stability of thrombin. For this purpose, a binding screen was carried out using a fluorescent gamma loop peptide incubated with several peptide arrays.
# (§2) A library of 1,676 15-meric peptides spanning the sequences of proteins interacting with the gamma loop of thrombin such as thrombin itself, anti-thrombin III (ATIII), thrombomodulin, heparin cofactor II, bovine pancreatic trypsin inhibitor (BPTI), and hirudin, and modifications of the thrombin gamma loop sequence were generated. Peptides were synthesized using SPOT synthesis (Wenschuh H, et al. (2000). Coherent membrane supports for parallel microsynthesis and screening of bioactive peptides. Biopolymers 55:188-206) and were chemoselectively immobilized onto functionalized glass slides as described (Panse S, et al. (2004) Profiling of generic anti-phosphopeptide antibodies and kinases with peptide microarrays using radioactive and fluorescence-based assays. Mol Divers 8:291-299.2.). Each peptide was printed in triplicates onto the microarray. For binding studies, 100 μg of purified thrombin (Omrix biopharmaceuticals) were directly labeled with DYLIGHT® 650 Microscale Antibody Labeling Kits, THERMO SCIENTIFIC™ (#84536) and diluted in blocking buffer SUPERBLOKTM T20 (TBS) Blocking Buffer, THERMO SCIENTIFICTM (#37536). The microarrays were incubated with 10 μg/ml DYLIGHT® 650-Thrombin or a Fluorescein-labeled cyclic gamma-loop derived peptide for one hour at 30° C. in a HS4800™ microarray processing station (Tecan) (Masch A, et al., (2010) Antibody signatures defined by high-content peptide microarray analysis. Methods Mol Biol 669:161-172).
# (§3) Microarrays were washed with 0.1% TWEEN®20 in 1× TBS followed by 0.05% TWEEN®20 in 0.1× SSC and dried in a stream of nitrogen. Each microarray was scanned using GENEPIX® Autoloader 4200AL (Molecular Devices, Pixel size: 10 μm). Signal intensities were evaluated using spot recognition software GENEPIX® Pro 7.0 analysis software (Molecular Devices). For each peptide, the mean signal intensity of the three triplicates was extracted. Further evaluation and representation of results was performed using the statistical computing and graphics software R (Version 2.11.1, www.r-project.org).
# (§4) One array included peptides based on the thrombin sequence. Any peptide isolated from this library may reflect possible regions in the thrombin protein that may interact with the gamma loop. […] The fluorescence for the strongest binding candidates (hits) was quantified on an arbitrary scale of 0-65535 (2^16). Thrombin activity was assesed as described in Example 1.
# thrombin [3] = target: T1, thrombin; experiment: Peptide microarray binding with fluorescently labelled thrombin; conditions: for Binding intensity of thrombin (100 μg/ml): DYLIGHT 650-Thrombin; for binding to thrombin (in words): fluorescent thrombin
# Procedure: A screen was carried out to identify gamma loop mutants that may show improved binding to thrombin. This was carried out with fluorescent thrombin on an array of gamma loop peptide mutants. Three such cyclized peptides with the highest binding efficiency were tested for their capacity to stabilize thrombin without compromising thrombin activity towards fibrinogen (see Example 4 below).
# as §2, with “The microarrays were incubated with 10 μg/ml DYLIGHT® 650-Thrombin or a Fluorescein-labeled” left out
# as §3, §4
Molecule,stabilization of thrombin activity (in words) (thrombin [2]),Binding intensity of gamma loop (gamma loop of thrombin),Binding intensity of thrombin (100 μg/ml) (thrombin [3]),also measured
N=C(N)c1ccccc1 [Benzamidine],–,–,–,inhibition of thrombin activity (thrombin [1]): 20%
"N=C(N)NCCC[C@H](N)C(=O)O [arginine, arginine*HCl]",–,–,–,"reduction/inhibition of thrombin activity (thrombin [1]; 0.5% (w/v) arginine): about 50%; reduction/inhibition of thrombin activity (thrombin [1]; 0.5% (w/v) arginine, listed as Arginine): 50%; reduction/inhibition of thrombin activity (thrombin [1]; 2% (w/v) arginine): > 95%; inhibition of thrombin (in words) (thrombin [1]; 3% (w/v) arginine, extrapolated from FIG. 2A): inhibit thrombin almost entirely; thrombin activity following storage (in words) (thrombin [2]; 0.5-5% (w/v) arginine, concentrated thrombin, up to 48 hours at 37° C.): maintained thrombin activity following storage; maintaining thrombin activity compared with 0.5 mM gamma loop peptide (in words) (thrombin [2]; 72 hours at 37° C.): not more effective; maintaining thrombin activity compared with 0.5 mM gamma loop peptide (in words) (thrombin [2]; 144 hours at 37° C.): only marginally so"
"CKETWTANVGKC (disulfide 1-12 (inferred)) [SEQ ID NO:3, gamma loop peptide cyclized with terminal cysteine residues]",efficient stabilization of thrombin activity; also recorded: capable of stabilizing liquid aqueous thrombin,–,–,–
"CKETWTANVLKC (disulfide 1-12 (inferred)) [SEQ ID NO:6, cyclized mutant gamma loop peptide]",inefficient,–,–,–
"CKETWTAYVGKC (disulfide 1-12 (inferred)) [SEQ ID NO:5, cyclized mutant gamma loop peptide]",inefficient,–,–,–
"CKNTWTANVGKC (disulfide 1-12 (inferred)) [SEQ ID NO:4, cyclized mutant gamma loop peptide]",inefficient,–,–,–
"ISMLEKIYIHPRYNW [Thr_111, thrombin derived peptide]",increased thrombin degradation; also recorded: destabilization effect,32804 arbitrary units,60199,binding to thrombin (in words) (thrombin [3]): strongest interaction with thrombin
KETWTANVGK [SEQ ID NO:1],–,–,–,inhibition of thrombin activity (thrombin [1]): about 20%
"NITRSGIESQLWRSR [Thr_031_CS, thrombin derived peptide, Cysteine replaced by Serine]",some stabilization effect,40787 arbitrary units,18537,stabilization of thrombin activity (in words) (thrombin [2]; listed as SEQ ID NO:9): capable of stabilizing liquid aqueous thrombin
"RIRITDNMFSAGYKP [Thr_136_CS, thrombin derived peptide, Cysteine replaced by Serine]",least effective; also recorded: weaker stabilization effect,25278 arbitrary units,5535,stabilization of thrombin activity (in words) (thrombin [2]; listed as SEQ ID NO:11): capable of stabilizing liquid aqueous thrombin; binding to thrombin (in words) (thrombin [3]): weakest fluorescent signal
"SGIESQLWRSRYPHK [Thr_032_CS, thrombin derived peptide, Cysteine replaced by Serine]",some stabilization effect,35117 arbitrary units,15079,stabilization of thrombin activity (in words) (thrombin [2]; listed as SEQ ID NO:10): capable of stabilizing liquid aqueous thrombin
SHNQRFVTYLGSKLG [Rnd_inter_155],–,19539 arbitrary units,23646,stabilization of thrombin activity (in words) (thrombin [2]; listed as SEQ ID NO:13): some stabilization effect; also recorded: capable of stabilizing liquid aqueous thrombin
"WCYVAGKPGDFGYCD [Thr_069, thrombin derived peptide]",minimal effect on thrombin stability; also recorded: weaker stabilization effect,50553 arbitrary units,3141,stabilization of thrombin activity (in words) (thrombin [2]; listed as SEQ ID NO:7): capable of stabilizing liquid aqueous thrombin; binding to thrombin (in words) (thrombin [3]): very weak binding to thrombin
